According to the DeepSol protein solubility set:

Assay: soluble on expression in E. coli; label from the status in PepcDB or PDB records

Sequence | soluble on expression in E. coli
MSAVKKQRIDLRLTDDDKSMIEEAAAISNQSVSQFMLNSASQRAAEVIEQHRRVILNEESWTRVMDALSNPPSPGEKLKRAAKRLQGM | soluble
MSLSSKKLGVILYGPPASGKDTVAQALSELDARYGQFARLKVGSGRTTRYRMGTAEQLHDLEAAGAAIYTNSRYGNTYVIDRPGMDSAFEAGVPVVHLGQIDGIRALVDGYTADWAVVLLWCSQEVTAQRSAGRGDSDTTARLAAWQATREDLDAHPDMRWDLTVDTEATAAEESARLIDQLLHARAGVTEGHHHHHH | soluble
MKIPSLQSNFNFSAPAGYSAPIAPNRAENAYADYVLDIGKRIPLSAADLSNVYESVIRAVHDSRSRLIDQHTVDMIGNTVLDALSRSQTFRDAVSYGIHNEKVHIGCIKYRNEYELNEESSVKIDDIQSLTCNELYEYDVGQEPIFPICEAGENDNEEPYVSFSVAPDTDSYEMPSWQEGLIHEIIHHVTGSSDPSGDSNIELGPTEILARRVAQELGWSVPDFKGYAEPEREAHLRLRNLNALRQAAMRHEENERAFFERLGTISDRYEASPDFTEYSAVSNIGYGFIQQHDFPGLAINDNLQDANQIQLYHGAPYIFTFGDVDKHNQQ | soluble
MTLISRIKQLAQSKQLTLAQLERNVGISNGQIRRWDTSSPKVENLLKIADYFSVSLDYLMGRTQQTEINHQAPMKSTQKELHIHITTEELTEEEITQLEEEANRFLRFRKFEMTNS | not soluble
MGSDKIHHHHHHMNEAELLDPPLETPPRPAVKVRGEPLAELPQDLYIPPDALEVFLEAFEGPLDLLLYLIRKQNLDVLDIPMAALTQQYMAYVEAARATRLELAAEYLLMAAVLIDIKSRMLLPRREQADEPGEADDPRAELVRRLLEYEQMKRAGQQLDALPQAGRDFDTVSVFLPAAAKRLPSVHAEELAAAWLAILSRAKNRTHHRIGRQELSIREHMSRILKRLTPGEFMEFKELFPEASTVHELVVTFLAVLELSKETLLDVTQAEPFAPIYVKLHESAAE | not soluble
MPSKQVGWWTMSEHTNDEVQPTALSGNDAVNRAAEQWKESAHRNIPGLGDLPIPDDTANLREGPNLHDGLLALLPLVGVWRGTGHADTAEEGQYAFGQQITFAHDGENYLTYESRIWKLDDEGNSTDLDYRESGFWRISLKDEIEVVLTHSTGVAEIFYGEPMNERAWQIESASTMVTAQGPATLGPGKRLYGLMPNNNLGWVDERMVDGEMRPRMSAELSRVIG | not soluble
MCQATNGPSRVVTKKHRKFFERHLQLLPSSHQGHDVNRMAIIFYSISGLSIFDVNVSAKYGDHLGWMRKHYIKTVLDDTENTVISGFVGSLVMNIPHATTINLPNTLFALLSMIMLRDYEYFETILDKRSLARFVSKCQRPDRGSFVSCLDYKTNCGSSVDSDDLRFCYIAVAILYICGCRSKEDFDEYIDTEKLLGYIMSQQCYNGAFGAHNEPHSGYTSCALSTLALLSSLEKLSDKFKEDTITWLLHRQVSSHGCMKFESELNASYDQSDDGGFQGRENKFADTCYAFWCLNSLHLLTKDWKMLCQTELVTNYLLDRTQKTLTGGFSKNDEEDADLYHSCLGSAALALIEGKFNGELCIPQEIFNDFSKRCCF | soluble
MPYPIEEKLVIGVASSALFDLSVSDDIYQTQGVEAYRQHQEQNLDEPFPRGVALPFIRRFLSINKAFPDQLPVEVVLLSRNSPETGLRVFRSISHYQLDITRAAFMSGRSPYEYIPAFNASLFLSANEEDVQKAIDANYPAGRVLPTRIYDDEIDTELRVAFDFDGVIADDEAESVYKRNDNLDDFQEHERMHKSTPHSPGPLADLYRKLSRIRMLEDRKLAEDPTYQRILRIAIVTARNAPSHERVVTTLKDWGVSPDECFFLGGMDKPRVLSILKPHVFFDDQRTHLQSPAGNLPMVHVPFGVANRVRSPQAPDVKQDQLPISASSCMPLEHHHHHH | soluble
MSLKKSLTELISDLKGNENVVNWHEIEPREAKTRPMPESIDERIKAALSKRGIDELYTHQYSAFQYVQKGESIVTVTPTASGKTLCYNLPVLQSIAQDETNRALYLFPTKALAQDQKSELNEIIDEMGIDIKSFTYDGDTSPAIRQKVRKAGHIVITNPDMLHSAILPHHTKWVSLFENLKYIVIDELHTYRGVFGSHVANVIRRLKRICRFYGSDPVFICTSATIANPKELGEQLTGKPMRLVDDNGAPSGRKHFVFYNPPIVNKPLNIRRSATAEVNELAKEFLKNKVQTIVFARSRVRVEIILSHIQELVKKEIGTKSIRGYRGGYLPKERREIERGLREGDILGVVSTNALELGVDIGQLQVCVMTGYPGSVASAWQQAGRAGRRHGESLIIMVANSTPIDQYIVRHPEYFFNRSPESARINPENLIILVDHLKCAAYELPFRADEEFGAMEVSDILEYLQEEAVLHRNGERYHWASESFPASNISLRSASQENVVIVDQSDIANVRIIGEMDRFSAMTLLHDEAIYLHEGVQYQVEKLDWDHKKAYVRKVDVEYYTDANLAVQLKVLEIDKTKEKSRTSLHYGDVTVNALPTIFKKIKMTTFENIGSGPIHLPEEELHTSAAWLEIKTADEDIGEKTLEQLLLGISNVLQHIVPVYIMCDRNDVHVVSQIKAAHTGLPTIFLYDHYPGGIGLAEEVFKRFSDINEAAKQLITHCPCHDGCPSCIGTEIEGIKAKERILQLLDQMSEGHHHHHH | soluble
SLTKKVTIGSYIKFSDSCKRDGLANYSEQGRFWDVHRSQADDVQKIYNQELEFQRLAQRIGNCSGILRFSQIDDDETGKKKLKLRLQEAHFCRVRHCPVCQWRRSLMWQARFYSALPAIIKEYPKARFLFLTLTVKNCHIEDLSDTLRIMNSGWQRLKDRKEFKSVLGWIRSTEVTKGKDGSAHPHFHILLMVPPSWFTHSYVKKSRWAELWAYCARLDYSPVVDIRTVKNCVPEASSGLTEGLKAAVAETLKYSVKPSDMIEGNNWFLQMTKQVHRKRFIASGGVLKNILRESQETNEDLIFADNLNEISDRSRIAFNWRQSEKCYRRFEQGD | soluble
MGSDKIHHHHHHMSRLSTAPWGPVLKSVPTAAHWSLRPWCLSISLSANSEAMNKMQTEKLITPFAHALQHEHGVWGLIDQMKAVTHFLDEELERDRIRNLGIADASFLRKFGAKGTYAAQWLEAQGVVIPTRPNSWAQAADGSLALRLGNSEFLIEDVPGGTSCDRLAQACAGARGVYPVPHVEASFVISGHAVQALFSEVCSIDLTHASLGAQDVVMTQFAGVSVVLIRQDLKEEESLYRLWCDSSYGSYLWEVIAGIAHEHKGGPVGIGRYFASCP | not soluble
MGSDKIHHHHHHMRKLYILGMILGMYATFSACNDEWKDELYTQMLSFKAPLGDNGLSEIYVRYQPDGTGIYQLPVIVSGSKSNSRNIDAKIAVDEDTLRILNQEKFPVGRQDLWYVPLAEQHYSFESNICHIPAGENIQLYPIHFNFNGLELDEKYVLPLTIEEDPSYVQNKYKGRYKALLGVNLFNDYSGTYNTTLMNIYIEGTTTDPAKVDTRLARVVDENTIFFYAGSTWVEDENRSRYKVFVEFEEGTEDEEGTIKGKLRLYGDEGEPGINIRPLGECKYEKRIIQHETIKYMERHLTTLELSYKYTDVTSNPDYPITYEVKGSMTMERQINPLIPDEDQAIEW | not soluble
AALSNLSIRTTAHRFMEEMSMYAQAPVALAARDRLNMLYLDVVQTNSTMRRPIGSTLPLHNSSMGRACLAATPKQERYFLLEAIQKREPENWIEIKEKLDIAFDQYAEYGYCLSLGEWQQGINSVAVPLMSTKHGLYVFNCGAPSYALSTEKLIEDIGPRLKYMVNSIQDALTESL | not soluble
MKILITGGSGLVGRQLTKSLQAQNIEVTWLSRTKGVKDGIKSFLWDYKKGYIEEEAFDGVTHIVHLAGAGVFDKRWTKSYKKEIFDSRILTTKLLVEKALKLNGLEAFISGSAIGIYGNSMNSVPLTETALYGNDYLAQVTKEWEAATVPLENSSIRLAIIRTGIVLSEHGGALPAMINPIKAYIGSPLASGEQIISWIHIDDLCRIFSKAITDDAIKGTYNGVAPEPVTNKVLTQTAAAILHKPLVMPNVPSFALNILLGKEKAASVVEGIAVSAEKISATGFTFTYPYIKKALSDLLLEHHHHHH | not soluble
MSSKHEILNALKLSALTNHPMPSIDVAPRVEDLVGQFETNLKTVAGTLHREGGLAALQAKVDELIAQGLQVISLVEGVTANRDVPPTAHELRDIDYAVIPGDVGVAENGAIWVNNKNLGHRVTPFICENLILALPIHKIVPNMHQAAKEVTLDAGEFGVFIAGPSKTADIEQALVVGAHGACSLNVYLV | soluble
